The values below come from patent US20120253017A1 (published 2012).

In general, Kd refers to a measure of binding affinity in units of concentration.

First the molecules themselves.
B8: mouse Stem Cell Factor, 6xHIS tag (ligand, UniProt P20826 26-190, looked up)
chain: KEICGNPVTDNVKDITKLVANLPNDYMITLNYVAGMDVLPSHCWLRDMVIQLSLSLTTLLDKFSNISEGLSNYSIIDKLGKIVDDLVLCMEENAPKNIKESPKRPETRSFTPEEFFSIFNRSIDAFKDFMVASDTSDCVLSSTLGPEKDSRVSVTKPFMLPPVAA
notes: also called mSCF; murine SCF

In assay [1] the target is T1, human c-kit (recombinant, on BIAcore chip or beads) (human, UniProt P10721 26-524).
T1 construct: extracellular domain; also called hcKIT; biotinylated human c-kit
Put plainly: BIAcore, c-kit on SA chip. Here is the method: (§1) All unique dAb clones were expressed in 50 ml cultures (OnEX plus carbenicillin) overnight at 37° C. and purified on protein A (VH dAbs) or protein L (VK dAbs). Purified dAbs were passed over a SA BIAcore chip coated with either human or mouse c-kit at 1 μM to identify those dAbs that bound specifically to either human or murine c-kit.
(SPR reads the build-up and loss of mass on a sensor chip optically.)

Assay [2] addresses T2, cyno c-kit (recombinant, on BIAcore chip) (cynomolgus monkey).
T2 chain: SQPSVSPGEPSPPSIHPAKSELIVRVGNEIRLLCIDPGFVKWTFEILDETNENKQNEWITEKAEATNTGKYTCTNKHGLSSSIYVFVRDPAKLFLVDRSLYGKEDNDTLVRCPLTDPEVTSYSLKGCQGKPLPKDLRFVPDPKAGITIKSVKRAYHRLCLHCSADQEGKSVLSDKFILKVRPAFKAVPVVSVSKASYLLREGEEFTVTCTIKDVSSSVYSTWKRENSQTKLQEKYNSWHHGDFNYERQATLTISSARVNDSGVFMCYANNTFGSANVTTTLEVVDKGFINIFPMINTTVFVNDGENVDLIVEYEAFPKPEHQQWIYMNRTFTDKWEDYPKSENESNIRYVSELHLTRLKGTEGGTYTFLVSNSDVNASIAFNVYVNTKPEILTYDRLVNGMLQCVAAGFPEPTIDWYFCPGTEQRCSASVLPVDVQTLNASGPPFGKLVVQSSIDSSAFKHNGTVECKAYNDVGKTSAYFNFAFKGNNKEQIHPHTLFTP
Put plainly: BIAcore, c-kit on SA chip. Here is the method: as §1

The target in the next assay is T3, rat cKIT ECD (rat, UniProt Q63116 25-526).
T3 construct: cloned into pDOM38, which provides a human IgG1 Fc; also called rcKIT; rckit; not shown: Human IgG1 Fc (and any linker) supplied by vector pDOM38
T3 sequence (Q63116 entry or part of it limits assumed, form in doubt): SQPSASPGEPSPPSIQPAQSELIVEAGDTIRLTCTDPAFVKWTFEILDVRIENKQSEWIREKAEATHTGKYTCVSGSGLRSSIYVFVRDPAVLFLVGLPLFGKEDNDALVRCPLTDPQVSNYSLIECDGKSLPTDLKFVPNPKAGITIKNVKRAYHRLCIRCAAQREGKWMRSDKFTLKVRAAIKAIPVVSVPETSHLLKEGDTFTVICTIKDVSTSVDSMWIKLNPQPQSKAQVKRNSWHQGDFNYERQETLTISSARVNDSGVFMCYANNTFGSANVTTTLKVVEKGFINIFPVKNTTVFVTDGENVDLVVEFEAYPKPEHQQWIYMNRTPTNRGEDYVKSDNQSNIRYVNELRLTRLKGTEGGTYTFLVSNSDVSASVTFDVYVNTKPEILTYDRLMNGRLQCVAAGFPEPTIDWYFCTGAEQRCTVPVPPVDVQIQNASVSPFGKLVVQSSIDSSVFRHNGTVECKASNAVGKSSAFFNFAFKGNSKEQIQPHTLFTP
Nature of the assay: BIAcore, bad fit.

Assay [3] has as its target Myosin Light Chain (on streptavidin chip; vMLC1-sulfotag). Put plainly: BIAcore, bad fit.
Assay [4] has as its target T1, human c-kit (recombinant, on BIAcore …). Put plainly: BIAcore.
For assay [5] the target is unchanged. Put plainly: BIAcore, bad fit.
The target is the same in assay [6]. Nature of the assay: BIAcore 2000, 1 uM dAb. How it is done:
All binding data was performed on a BIAcore 2000 instrument at 1 uM of dAb concentration.

For assay [7] the target is unchanged. Put plainly: BIAcore. This is another data set of the same source.
The target in assay [8] is T4, human c-kit on HEL-92.1.7 and KU812 cells (human, UniProt P10721 26-976).
T4 construct: whole, on cells
T4 sequence (P10721 26-976): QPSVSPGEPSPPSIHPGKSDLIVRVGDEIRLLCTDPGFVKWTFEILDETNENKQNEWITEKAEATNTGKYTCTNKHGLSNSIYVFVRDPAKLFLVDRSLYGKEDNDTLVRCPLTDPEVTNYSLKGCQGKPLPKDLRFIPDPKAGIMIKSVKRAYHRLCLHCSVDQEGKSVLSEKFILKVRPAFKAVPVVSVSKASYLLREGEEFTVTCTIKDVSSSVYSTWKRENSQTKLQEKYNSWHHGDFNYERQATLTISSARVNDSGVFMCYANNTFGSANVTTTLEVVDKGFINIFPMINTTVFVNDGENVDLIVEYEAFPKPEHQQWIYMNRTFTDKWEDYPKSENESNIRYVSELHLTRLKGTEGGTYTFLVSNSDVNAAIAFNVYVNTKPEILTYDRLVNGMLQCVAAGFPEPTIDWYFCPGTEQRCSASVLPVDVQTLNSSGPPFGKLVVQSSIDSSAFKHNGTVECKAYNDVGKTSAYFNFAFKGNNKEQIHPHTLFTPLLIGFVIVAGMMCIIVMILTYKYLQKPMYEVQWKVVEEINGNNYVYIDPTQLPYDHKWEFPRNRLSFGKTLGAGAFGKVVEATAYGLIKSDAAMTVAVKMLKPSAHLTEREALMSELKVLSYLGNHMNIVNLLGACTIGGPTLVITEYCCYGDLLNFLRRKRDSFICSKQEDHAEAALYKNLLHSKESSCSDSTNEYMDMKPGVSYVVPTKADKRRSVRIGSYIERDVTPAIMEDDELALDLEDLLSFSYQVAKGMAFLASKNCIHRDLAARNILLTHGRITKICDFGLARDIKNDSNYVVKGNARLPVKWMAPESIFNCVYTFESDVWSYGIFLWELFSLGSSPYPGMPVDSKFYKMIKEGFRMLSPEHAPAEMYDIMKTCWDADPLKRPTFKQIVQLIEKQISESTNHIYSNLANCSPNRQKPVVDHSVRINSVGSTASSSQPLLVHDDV
Nature of the assay: flow cytometry, HEL-92.1.7 cells (also YES on c-kit negative Jurkat). (A flow cytometer gives signals particle by particle.)

Assay [9] addresses T1, human c-kit (recombinant, on BIAcore …). Nature of the assay: BIAcore 2000.
A further assay addresses T5, Mouse cKIT ECD-H6 (mouse, UniProt P05532 25-527).
T5 construct: extracellular domain; also called mouse c-kit (His tagged)
T5 sequence (looked up): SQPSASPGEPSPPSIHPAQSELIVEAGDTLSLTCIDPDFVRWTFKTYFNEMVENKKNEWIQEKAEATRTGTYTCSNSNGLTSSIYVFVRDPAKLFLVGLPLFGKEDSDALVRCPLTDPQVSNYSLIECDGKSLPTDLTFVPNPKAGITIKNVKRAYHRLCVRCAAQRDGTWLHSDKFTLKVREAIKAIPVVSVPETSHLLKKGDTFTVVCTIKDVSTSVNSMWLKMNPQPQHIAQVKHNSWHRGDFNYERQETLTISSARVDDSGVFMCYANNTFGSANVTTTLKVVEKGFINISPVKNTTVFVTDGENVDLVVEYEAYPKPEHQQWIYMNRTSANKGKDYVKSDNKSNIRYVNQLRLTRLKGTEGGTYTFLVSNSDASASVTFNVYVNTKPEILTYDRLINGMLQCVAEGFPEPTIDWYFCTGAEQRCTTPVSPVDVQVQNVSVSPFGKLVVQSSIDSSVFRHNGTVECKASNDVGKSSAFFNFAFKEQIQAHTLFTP
Nature of the assay: BIAcore, SCF on CM5 chip. Here is the method: (§2) Human and murine SCF were covalently attached to a CM5 BIAcore chip (GE Healthcare) in the presence of acetate pH 4 for both antigens. cKIT from various species were diluted to 1 μM in HBS-EP buffer (GE Healthcare) and run on the BIAcore in a 2-fold serial dilution to 1 nM.
(§3) Anti-human and anti-mouse SCF monoclonal antibodies (mAb) were used as controls (R&D systems).

A further assay addresses T6, Human cKIT ECD-Fc (human, UniProt P10721 26-524).
T6 construct: extracellular domain; also called hcKIT; human c-KIT ECD-hIgG1 Fc fusion; not shown: human IgG1 Fc (pDOM38)
Nature of the assay: BIAcore, SCF on CM5 chip. How it is done: as §2, §3

Assay [10] addresses B8. Put plainly: BIAcore, SCF on CM5 chip. How it is done: as §2, §3
The target of assay [11] is T7, human Stem Cell Factor, 6xHIS tag (human, UniProt P21583 26-190, limits assumed).
T7 construct: also called hSCF; human SCF
Put plainly: BIAcore, SCF on CM5 chip. Here is the method: as §2, §3

Chain of Myosin Light Chain (on streptavidin chip; vMLC1-sulfotag) (chain, as listed by the source): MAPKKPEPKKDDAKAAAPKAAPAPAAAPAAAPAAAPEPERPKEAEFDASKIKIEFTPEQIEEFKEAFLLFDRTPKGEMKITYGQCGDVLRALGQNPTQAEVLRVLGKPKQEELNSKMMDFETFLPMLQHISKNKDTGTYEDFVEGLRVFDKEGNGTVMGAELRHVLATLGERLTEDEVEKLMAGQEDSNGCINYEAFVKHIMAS
T6 sequence (P10721 26-524): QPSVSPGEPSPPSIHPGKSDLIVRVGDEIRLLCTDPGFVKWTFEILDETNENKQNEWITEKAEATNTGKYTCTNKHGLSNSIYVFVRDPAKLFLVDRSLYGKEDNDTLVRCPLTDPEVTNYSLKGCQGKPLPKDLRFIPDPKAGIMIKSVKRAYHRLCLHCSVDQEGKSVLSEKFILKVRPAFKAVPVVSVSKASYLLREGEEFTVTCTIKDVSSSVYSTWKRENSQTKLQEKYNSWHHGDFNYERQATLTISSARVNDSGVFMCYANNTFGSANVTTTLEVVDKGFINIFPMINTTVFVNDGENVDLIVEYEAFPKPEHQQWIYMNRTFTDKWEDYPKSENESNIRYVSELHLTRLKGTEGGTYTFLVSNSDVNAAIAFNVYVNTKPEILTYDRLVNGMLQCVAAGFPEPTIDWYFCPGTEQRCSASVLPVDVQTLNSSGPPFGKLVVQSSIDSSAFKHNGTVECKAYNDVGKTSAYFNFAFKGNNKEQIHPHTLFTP

B1: DOM28m-7 (other)
VH: EVQLLESGGGLVQPGGSLRLSCAASGFTFSNYAMGWVRQAPGKGLEWVSSISSSGFATYYADSVKGRFTISRDNSKNTLYLQMNSLRAEDTAVYYCAKSESRTFKAFDYWGQGTLVTVSS
notes: VH dAb, C-terminal FLAG tag (pDOM10); also called DOM28m-007
For the molecule B1, the values for the Kd (in assay [1]; in [2]; with rat cKIT ECD) were 7200 nM, 29000 nM and 30 nM, respectively.

B2: DMS5053 (chimeric MLC mAb-cKIT dAb, DOM28m-017) (bispecific antibody)
heavy: not shown
light: DIVMSQSPSSLAVSAGDKVTMSCKSSQSLLYSRTRKNYLAWYQQKPGQSPKLLIYWASTRQSGVPDRFTGSGSGTDFTLTISSVQAEDLAVYYCKQSYNLFTFGSGTKLEIKRTVAAPSVFIFPPSDEQLKSGTASVVCLLNNFYPREAKVQWKVDNALQSGNSQESVTEQDSKDSTYSLSSTLTLSKADYEKHKVYACEVTHQGLSSPVTKSFNRGEC
For B2, the Kd stood at 0.003 nM in assay [3] and 36000 nM in [4].

B3: DMS5059 (chimeric MLC mAb-cKIT dAb, DOM28m-114) (bispecific antibody)
heavy: not shown
light: DIVMSQSPSSLAVSAGDKVTMSCKSSQSLLYSRTRKNYLAWYQQKPGQSPKLLIYWASTRQSGVPDRFTGSGSGTDFTLTISSVQAEDLAVYYCKQSYNLFTFGSGTKLEIKRTVAAPSVFIFPPSDEQLKSGTASVVCLLNNFYPREAKVQWKVDNALQSGNSQESVTEQDSKDSTYSLSSTLTLSKADYEKHKVYACEVTHQGLSSPVTKSFNRGEC
As to B3, the Kd in assay [5] is 8 nM; in assay [3] it was 10 nM.

B4: DMS5055 (chimeric MLC mAb-cKIT dAb, DOM28m-104) (bispecific antibody)
heavy: not shown
light: DIVMSQSPSSLAVSAGDKVTMSCKSSQSLLYSRTRKNYLAWYQQKPGQSPKLLIYWASTRQSGVPDRFTGSGSGTDFTLTISSVQAEDLAVYYCKQSYNLFTFGSGTKLEIKRTVAAPSVFIFPPSDEQLKSGTASVVCLLNNFYPREAKVQWKVDNALQSGNSQESVTEQDSKDSTYSLSSTLTLSKADYEKHKVYACEVTHQGLSSPVTKSFNRGEC
Turning to B4, the values for the Kd in assay [3] and in assay [4] were 0.124 nM and 72 nM, respectively.

B5: DMS5057 (chimeric MLC mAb-cKIT dAb, DOM28m-109) (bispecific antibody)
heavy: not shown
light: DIVMSQSPSSLAVSAGDKVTMSCKSSQSLLYSRTRKNYLAWYQQKPGQSPKLLIYWASTRQSGVPDRFTGSGSGTDFTLTISSVQAEDLAVYYCKQSYNLFTFGSGTKLEIKRTVAAPSVFIFPPSDEQLKSGTASVVCLLNNFYPREAKVQWKVDNALQSGNSQESVTEQDSKDSTYSLSSTLTLSKADYEKHKVYACEVTHQGLSSPVTKSFNRGEC
In the case of B5, the Kd in assay [3] was found to be 0.116 nM; in [4], 318 nM.

B6: DOM28m-23 (other)
VH: EVRLLESGGGLVQPGGSLRLSCAASGFTFRDYVMVWVRQAPGKGLEWVSAIAPTGGYTYYADSVKGRFTISRDNSKNTLYLQMNSLRAEDTAVYYCAKSLRTWLSEDLPFDYWGQGTLVTVSS
notes: VH dAb, C-terminal FLAG tag (pDOM10); also called DOM28m-023
Consider B6, for which the dissociation constant (Kd) was 2900 nM in [1]; 2720 nM in [2]; 6000 nM in [6]; 25 nM with rat cKIT ECD; 6000 nM in assay [7].

B7: DOM28m-73 (other)
chain: EVQLLESGGGLVQPGGSLRLSCAASGFTFKHYSMNWVRQAPGKGLEWVSRISPSGVSTYYADSVKGRFTISRDNSKNTLYLQMNSLRAEDTAVYYCAKIMNSHKADEFDYWGQGTLVTVSS
notes: dAb, C-terminal FLAG tag (pDOM10)
With B7, the binding result in assay [8] is on record as “binds”; in assay [9], “no binding (tested: 1 uM)”.
With B8, the binding result with Mouse cKIT ECD-H6 is listed as “no binding (tested: 1 µM)”. In the assay with Human cKIT ECD-Fc, this molecule returned a Kd of 17.7 nM.

B9: Cyno cKIT ECD-H6 (receptor)
chain: SQPSVSPGEPSPPSIHPAKSELIVRVGNEIRLLCIDPGFVKWTFEILDETNENKQNEWITEKAEATNTGKYTCTNKHGLSSSIYVFVRDPAKLFLVDRSLYGKEDNDTLVRCPLTDPEVTSYSLKGCQGKPLPKDLRFVPDPKAGITIKSVKRAYHRLCLHCSADQEGKSVLSDKFILKVRPAFKAVPVVSVSKASYLLREGEEFTVTCTIKDVSSSVYSTWKRENSQTKLQEKYNSWHHGDFNYERQATLTISSARVNDSGVFMCYANNTFGSANVTTTLEVVDKGFINIFPMINTTVFVNDGENVDLIVEYEAFPKPEHQQWIYMNRTFTDKWEDYPKSENESNIRYVSELHLTRLKGTEGGTYTFLVSNSDVNASIAFNVYVNTKPEILTYDRLVNGMLQCVAAGFPEPTIDWYFCPGTEQRCSASVLPVDVQTLNASGPPFGKLVVQSSIDSSAFKHNGTVECKAYNDVGKTSAYFNFAFKGNNKEQIHPHTLFTP
In the case of B9, the Kd in [10] is 867 nM; in [11], 369 nM.
